From publication PMC8311496 come the findings set out here.

The test system of the data set is PE6 (Mycobacterium tuberculosis). Conditions: 10 mM Tris-HCl pH 7.4, 100 mM NaCl, 298 K (fluorescence titration).

Broadly, the Kd is the concentration at which binding is half-saturated.

On to dsDNA (unspecified), for which the Kd turned out to be 1400 nM.
